The record followed here is patent publication US20110086089A1, “USE OF P27KIP1 FOR THE PREVENTION AND TREATMENT OF HEART FAILURE” (UNIVERSITY HEALTH NETWORK, priority 2008, published 2011).

Marks after values point to notes of the source that are not given here.

In the experiment the test system is WT mice. Briefly: Chronic Ang II infusion for 14 days with daily TAT.protein injection, WT mice. As to conditions: for FS / LVEDD / LVEF / LVESD / PWD: WT, echocardiography at 14 days. The format is in vivo. The text has this:
FIG. 5 is a series of graphs, blots and cell stainings showing CK2-alpha-prime is important for Ang II action in vivo. […] Transduction of recombinant active CK2-alpha-prime evokes cardiac hypertrophy in the absence of Ang II. (A) Heart-weight corrected for body-weight (left panel) and Masson-stain of myocardial cross sections (right panel). Mean±s.e.m., n=6-8. #P<0.01 vs sham saline. *P<0.01 vs sham saline. Scale bar, 2 mm. (B) Cell size analysis of adult cardiac myocytes isolated from 8-weeks-old mice. One hundred cells from three different mice were analyzed per group. Mean±s.e.m. #P<0.01 vs sham saline. *P<0.01 vs sham saline. **P<0.01 vs Ang II. (c) Determination of ANF/BNP mRNA levels by qRT-PCR. Mean±s.e.m., n=6-8. *P<0.05 vs sham saline. **P<0.05 vs Ang II. #P<0.05 vs sham saline. (D) Visualization of ectopic TAT-conjugated p27deltaPi by indirect immunofluorescence microscopy employing anti-His tag antibodies. Scale bar, 200 μm. (E) Left ventricular extracts (2-3 mg) were subjected to anti-CK2-alpha-prime immunocomplex kinase assays employing histone H1 substrate. Aliquots of kinase reactions were subjected to immunoblotting using antibodies as indicated on the left (top and middle panel). Levels of endogenously expressed or transduced proteins in total left ventricular heart tissue samples (60 μg) were analyzed by immunoblotting (bottom panel). Experiments to (E) were done twice with similar results.
To define whether CK2-alpha-prime -directed p27 turnover plays a role in vivo, the inventors chronically infused Ang II^72 and intraperitoneally injected recombinant TAT-conjugated CK2-alpha-prime and p27 variants in WT and p27^−/− mice (FIG. 9). […] These mice had normal LVEDD and LVESD when compared to Ang II-infused littermates (Table 3). […] CK2-alpha-prime activity and p27 destabilization were similar to their non-transduced Ang II-treated siblings (FIG. 5E).
Spontaneously beating cardiomyocytes from heart ventricles of neonatal rats were cultured and subjected to treatment with angiotensin II (Ang II). DMAT (2-dimethylamino-4,5,6,7-tetrabromo-1H-benzimidazol), DMSO, lactacystin and LLM were obtained from Calbiochem. Ang II was purchased from Sigma. Animal usage was in accordance with approved institutional animal care guidelines. Age-matched male WI C57BL/6 and p27^−/− mice were used in this study. For results shown in FIGS. 1 to 9: Ang II was chronically infused subcutaneously by osmotic pumps (model 2000, Alzet) at a dose of 1.4 μg/kg per minute for 14 days. TAT.proteins (10 mg/kg) were injected intraperitoneally once daily for 14 days. For results shown in FIGS. 10 to 12: Ang II was chronically infused subcutaneously by osmotic pumps (model 2000, Alzet) at a dose of 0.7 μg/kg per minute for 16 days. TAT.proteins (20 mg/kg) were injected intraperitoneally once daily for 8 days starting at day 8. Thoracic aortic banding (TAB) and pressure gradient measurements were performed as described^39.

Where [1] appears, read: Ang infusion 1.4 μg/kg per minute 14 days, TAT.protein 10 mg/kg i.p. once daily.
[2] abbreviates: saline infusion, TAT.protein 10 mg/kg i.p. once daily 14 days.

B1: kd.CK2-α′: catalytically-inactive kinase-dead CK2-alpha-prime, point mutation K69M; TAT-conjugated protein in mice, lentivirally expressed in cardiomyocytes (protein)
chain: MPGPAAGSRARVYAEVNSLRSREYWDYEAHVPSWGNQDDYQLVRKLGRGKYSEVFEAINITNNERVVVMILKPVKKKKIKREVKILENLRGGTNIIKLIDTVKDPVSKTPALVFEYINNTDFKQLYQILTDFDIRFYMYELLKALDYCHSKGIMHRDVKPHNVMIDHQQKKLRLIDWGLAEFYHPAQEYNVRVASRYFKGPELLVDYQMYDYSLDMWSLGCMLASMIFRREPFFHGQDNYDQLVRIAKVLGTEELYGYLKKYHIDLDPHFNDILGQHSRKRWENFIHSENRHLVSPEALDLLDKLLRYDHQQRLTAKEAMEHPYFYPVVKEQSQPCADNAVLSSGLTAAR
modifications: left off: small tags and cut ends
notes: TAT-conjugated protein in mice, lentivirally expressed in cardiomyocytes
Consider B1, for which the “cardiac hypertrophy to Ang II (heart/body weight ratio, myocyte area, ANF/BNP mRNA)” value (Ang II-treated WT mice, TAT.proteins 10 mg/kg i.p. once daily 14 days) was “abrogate cardiac hypertrophy”. For the same molecule, for the setting “Ang II-treated WT mice, left ventricular extracts”, the “Ang II-induced CK2-alpha-prime activity (left ventricular immunocomplex kinase assay)” value is listed as “abolished”. In addition, under setting [1], the FS was 38 ± 2.6** %, the LVEDD is 3.8 ± 0.2** mm, the LVEF was 71 ± 2.3** % and the LVESD was 1.3 ± 0.1** mm. The PWD under setting [1] was 0.7 ± 0.2** mm. Under setting [2], this molecule had an LVEDD of 3.7 ± 0.2 mm, an LVEF of 71 ± 2.4%, an LVESD of 1.4 ± 0.2 mm and a PWD of 0.7 ± 0.1 mm. Moreover, for the setting “saline infusion, TAT.protein 10 mg/kg i.p. once daily 14 days, 8-weeks of age”, the FS stood at 40 ± 1.5%.
